Measurements taken from US6861508B2, “Transcriptional intermediary factor-2” (Institut National de la Sante et de la Recherche Medicale, priority 1996, dated 2005).

Key:
[1] = tested on: CBP (residues 1872 to 2165); assay: GST-CBP pull-down of TIF2 polypeptides; format: binding
Protocol: (d) Mapping of the CBP-interacting domain of TIF2. GST puld own experiments were performed with ^35S-labeled in-vitro-translated TIF2 polypeptides and bacterially produced GST and GST-CBP (expressing CBP residues 1872 to 2165).
(c) Interaction of TIF2 AF-1 mutants with CBP in vitro. GST pull-down experiments were performed with ^35S-labeled in-vitro-translated GAL-TIF2 fusion proteins and bacterially produced GST and GST-CBP.
(c) Interaction of TIF2.13 wildtype and TIF2.13 mutants with CBP in vitro. GST pull-down experiments were performed with ^35S-labeled in-vitro-translated VP16-TIF2.13 polypeptides and bacterially produced GST and GST-CBP.
Furthermore, it was reported that SRC-1, which belongs to the same gene family as TIF2, interacts with CBP and p300 (Kamei, Y. et al., Cell 85:403-414 (1996); Yao, T. P. et al., Proc. Natl. Acad. Sci. USA 93:10626-10631 (1996); Hanstein, B., et al., Proc. Natl. Acad Sci USA 93:11540-11545 (1996)). Using GST-fusion protein-based interaction and animal cell-based two hybrid assays, we therefore analyzed whether TIF2 could also interact with CBP. […] A GST-CBP fusion protein was expressed in E. coli and used for puU-down assays with in vitro translated TIF2 polypeptides (FIG. 7d).

[2] = biological target: T1, GST-hERα(DEF) (pGEX2T-hERα(DEF), amino acids 282-595) (human, UniProt P03372 282-595); assay: GST pull-down with 35S in-vitro-translated TIF2 polypeptides, with or without 10^-6 M estradiol
T1 construct: range 282-595; Bacterially produced; also used 32P-labelled as Far-Western probe; also called GST-ER; GST-ER(DEF); not shown: glutathione-S-transferase (GST) of pGEX2T (Pharmacia)
T1 sequence (looked up): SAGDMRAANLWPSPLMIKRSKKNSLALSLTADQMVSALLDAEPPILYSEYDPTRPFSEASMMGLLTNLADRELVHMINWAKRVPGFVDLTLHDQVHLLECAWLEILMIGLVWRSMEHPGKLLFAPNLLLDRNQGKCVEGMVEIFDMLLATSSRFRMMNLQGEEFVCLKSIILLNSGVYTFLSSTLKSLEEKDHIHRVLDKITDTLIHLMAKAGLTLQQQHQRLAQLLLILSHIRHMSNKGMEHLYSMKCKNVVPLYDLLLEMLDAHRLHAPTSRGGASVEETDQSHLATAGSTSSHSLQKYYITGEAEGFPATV

[3] = biological target: T2, GST-hRARα(DEF) (pGEX2T-hRARα(DEF), amino acids 153-462) (human, UniProt P10276 153-462); assay: GST pull-down with 35S in-vitro-translated TIF2 polypeptides, with or without 10^-6 M all-trans-retinoic acid
T2 construct: range 153-462; Bacterially produced; also called GST-RAR; GST-RARα(DEF); not shown: glutathione-S-transferase (GST) of pGEX2T (Pharmacia)
T2 sequence (looked up): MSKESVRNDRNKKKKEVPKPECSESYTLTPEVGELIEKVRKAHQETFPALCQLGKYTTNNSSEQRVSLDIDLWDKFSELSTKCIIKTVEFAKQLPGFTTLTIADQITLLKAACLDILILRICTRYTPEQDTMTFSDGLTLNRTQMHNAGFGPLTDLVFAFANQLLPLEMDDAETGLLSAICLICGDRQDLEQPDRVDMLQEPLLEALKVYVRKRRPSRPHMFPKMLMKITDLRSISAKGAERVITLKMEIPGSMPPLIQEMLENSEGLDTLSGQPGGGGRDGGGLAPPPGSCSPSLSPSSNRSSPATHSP

B1: TIF2.2 (TIF2 amino acids 1288-1464) (other)
chain: NPRIPQANAQQFPFPPNYGISQQPDPGFTGATTPQSPLMSPRMAHTQSPMMQQSQANPAYQAPSDINGWAQGNMGGNSMFSQQSPPHFGQQANTSMYSNNMNINVSMATNTGGMSSMNQMTGQISMTSVTSVSTSGLSSMGPEQVNDPALRGGNLFPNQLPGMDMIKQEGDTTRKYC
notes: In-vitro-translated; also called AD2
- binding to GST-CBP in vitro [1]: did not show any binding
- binding result [2]: no binding
- binding result [3]: no binding
